Source: the DeepSol protein solubility set

Assay: soluble on expression in E. coli; label from the status in PepcDB or PDB records
In the case of “MGSDKIHHHHHHMQTLKRGFAVAALLFSPLTMAQDINAQLTTWFSQRLAGFSDEVVVTLRSSPNLLPSCEQPAFSMTGSAKLWGNVNVVARCANEKRYLQVNVQATGNYVAVAAPIARGGKLTPANVTLKRGRLDQLPPRTVLDIRQIQDAVSLRDLAPGQPVQLTMIRQAWRVKAGQRVQVIANGEGFSVNAEGQAMNNAAVAQNARVRMTSGQIVSGTVDSDGNILINL”, the “soluble on expression in E. coli” value is reported as “not soluble”. In the case of “MAHHHHHHMNGTRRFSAAPVNFDRFIALAHSYSRSLSPDRELDQMLRPFQGRAAASTSTATRESTASRVATPQRRHQQMRNGELIDKGSVSTEAEVGKPYWGTTESVAMTRSTTASNTVFSTRAATSTSRTVSGGAAETTSAVSTRSSYLVHSSCPVGEETQELGSGSYSADEVDPLLQAAMQLGSPLYDPVKRQFVCWQLHALEKRPRAAYGDVEGVSCDFCGHTDWLEGVPERATSSPSASATVANADEGKMDTHAPSAAASFTAHARFFYNCSACQVDVCQACLEEVRSDERLHVPCFQCQRCGGYETRQNAPLHRCAEVTRISDDEGSTGVQALLTSPRSNVDASQALPAAPATSSPKYRGVPVGRPVRLGLCRRFQQAVEAVAAPDTEIAAHAGKIANSTPHRKRKRASPEAALVPKQRSGKTTNDTAEVFRVSDVSDKSCRKVRRASASALPKPAPPKQEADDADGDASRALVEAALLPFARYEVHLTPRTAEEVGEVGRIAREQHLVCSPLPSLAKTCVFYFTTRLAAETCVDRATAASLDAILKQSVTPVCRT”, the “soluble on expression in E. coli” value is reported as “not soluble”. In the case of “EFSSEELIRMSNYLNELLVGVPVGQVRTRILEEMRNEKVLYDKLLARALQLSEQSLNDDGAQIFIEGQTNILEQPEFADSRRMRDLFRAFEEKNQLVGLLDRCLNAQGVQIFIGAETHLSQMEGLSIITSTYLTGKNTLGVLGVIGPTRMGYAKVIPIVDYTAKLVSRLLEG”, the “soluble on expression in E. coli” value is reported as “not soluble”. In the case of “GSSSSLPLYNQQVGDCCIIRVSLDVDNGNMYKSILVTSQDKAPTVIRKAMDKHNLDEDEPEDYELLQIISEDHKLKIPENANVFYAMNSAANYDFILKKR”, the “soluble on expression in E. coli” value is reported as “soluble”. With “MSLAATALLEAGLARVLFYPTLLYTLFRGKVPGRAHRDWYHRIDPTVLLGALPLRSLTRQLVQDENVRGVITMNEEYETRFLCNSSQEWKRLGVEQLRLSTVDMTGIPTLDNLQKGVQFALKYQSLGQCVYVHCKAGRSRSATMVAAYLIQVHKWSPEEAVRAIAKIRSYIHIRPGQLDVLKEFHKQITARATKDGTFVISKTEGHHHHHH” the “soluble on expression in E. coli” value was “soluble”. In the case of “MGSDKIHHHHHHMKQIAVVSGKGGTGKTTFTASLGVLLENSLLADCDVDASNLYILFPGDPVEEHEYYRGKKAVIDQEKCDRCGICERVCRFDAIIPGEKYGVDQYACEGCNACVVSCPRNAITLVQSLAGRYFFAWSGGKPIVYARLSPGEENSGGLVAEVRKLALEKAKELKRDYVIIDGAPGIGCSATSSIVGVNYVVVVTEPTMSGLHDLKRIVETLKCLKREFGIVINKYDINSVVSREIEDYCLSEGLDLLGKIPFDETVVRASVECKPVVTYENSPAAESIKKIVEKIIEKIS”, the “soluble on expression in E. coli” value is reported as “not soluble”. For “MKHIIILGDGMADWPVKSLGDKTLLQYAKTPYMDKLARMGRNGRLITVAEGFHPGSEVANMSVLGYNLPKVYEGRGPLEAASIGVDLKPGEMAMRCNLICVEGEILKNHSSGHISTEEADVLIQYLQEKLGNDRVRFHTGVQYRHLLVIKGGNKELDCTPPHDVPLKPFRPLMVKPLVPEAQETADLINDLILKSQELLKNHPLNLKRMSEGKDPANSIWPWSPGYRPQMPAFSETFPQVKKGAVISAVDLINGIGYYAGLRRIAVEGATGLYNTNYENKVAAALEALKTDDFVYLHIEASDEAGHEGDIDLKLLTIENLDKRAVGPIYEAVKDWDEPVAIAVLPDHPTPCELRTHTSDPIPFLIWYPGIEPDEVQTYDEISACDGSYGVLKEDEFIKEFMNQKNIQ”, the “soluble on expression in E. coli” value was “not soluble”. For “MALSHSVKERTISENSLIILLQGLQGQITTVDLRDESVARGRIDNVDAFMNIRLANVTYTDRWGHQVELDDLFVTGRNVRYVHIPDGVDITATIEQQLQIIHRVRNFGGKGQGRREFPSKRP”, the “soluble on expression in E. coli” value was “soluble”. For “MGSDKIHHHHHHMFRRIREDLIKNHMEGPQGFRSMLAGWVECGFCTIVEDEIRFWNGSRIYLCHCKDEKDRFKYQGAEIHVLLIDELTHFTEVIYRFLRNRVRMVGIKLPAKYAGRFPRILCGANPGGIGHQFVKATFIDGATAMKVYTTEASEGGMRRQFIPAQLEDNPSMNDNDPGYENRLMGLGSESLVRAMRYGDWDVVEGAYFDNFERRRHVVKPFTIPDHWIRFRAGDWGSAKPFAFGWYVVASDDTIIAPGVVVPRGALVKYREWYGVKIDKSGKFLPDVGLKLHAEAVGAGVRQRDYDDIIVYGVLDPAAFSQDGGPSIAERMTRGTTGSNGSTFRRADNKRTAGRGAMGGWDQLRGRLTGDGDGRPMLFFFDTCIHTIRTLPALQHDEANPEDLDTKQEDHAADETRYACMSRPWIAKSKVPAPQVPEGHIALPGAPDEAAGNRRIRI”, the “soluble on expression in E. coli” value was “not soluble”. With “MSLGFIDAQREHFGVESICKALQVAPSGYWRRAARRSNPALLPARAKGDAELVPQIERVWTSNLQVYGYRKVWRQMLREGTAVARCTVERLMRLKGLQGARRGKKILTTVPDAKAPCPLDRVNRQFKADKPNQLWVSDFTYVSTWQGMVYVAFVVDVYARFIVGWRVSRSMRTDFVLDALEQALYARKPERDGALIHHSDRGLQYVSIRYSERLAEAGIEPSVGSKGDSYDNALAETINGLYKTELIHRRAPWKSKEAVELATLEWVSWFNHHRLMESLGYIPPAEAEANYHWQLAGQAMSVEGHHHHHH” the “soluble on expression in E. coli” value was “not soluble”. For “MGSDKIHHHHHHMNTGASAGVCDAFDRGRFRNAIEVFSSRMPAEIRTARASDVDDLAAIEKAVFSSDRISRRSFRLFIERETAETLVAEVDGRVAGYAIVLFRKGSGVARLYSIAVGPFFGALGIGRQLLTAAEEAAFEHDRMMLRLEVREDNSRAIRIYEQAGYRKIGREPGYYEDGATALRYEKTLRGDLPVATRVPFYQQTCEFTCGPCCLMMAMANFDRGFVPDPVMEIRLWREATTVFMMSGPGGCEPFGLAVSGYESGLAAEIFVSFYGALFLQSVRSEDKRRVMELAQVDFRRRAELYGIPVNCRPFTLDDIRTAIAAGKLVLVLISGFLMFGKKVPHWVLAIGDDGDHILIHDPWVEDERQETILDAANIPVPYGIFMNMAQFGRDGLRAAITLGKRDTQ”, the “soluble on expression in E. coli” value was “not soluble”. With “MSSDANSDDPFSKPIVRKRFQATLAQQGIEDDQLPSVRSSDSPDVPDTPDVPVNQLSSPPLSLPETLSEGNAETNLSDDSEPEMLSQSSTSSLNRRMEDSAIDPSRGTRKSQSRGFDYDPAGERTTAPVQKKKKDEIDMGGAKFFPKQEKKHVYTHKWTTEEDDEDEKTISSSSNRYSSRPNQPAVSARPRQPVYATTSTYSKPLASGYGSRVRHIKEANELRESGEYDDFKQDLVYILSSLQSSDASMKVKCLSAISLAKKCVSPDFRQFIKSENMTKSIVKALMDSPEDDLFALAASTVLYLLTRDFNSIKIDFPSLRLVSQLLRIEKFEQRPEDKDKVVNMVWEVFNSYIEKQEVGGQKVSFDMRKESLTPSSLIIEALVFICSRSVNDDNLKSELLNLGILQFVVAKIETNVNLIADNADDTYSILILNRCFRILESSSVFHKKNQAFLISHRSNILISSLAKFLQVILDRVHQLAEEEVKKYISCLALMCRLLINISHDNELCCSKLGQIEGFLPNAITTFTYLAPKFGKENSYDINVMMTSLLTNLVERCNANRKVLIAQTVKMVIPGHDVEEVPALEAITRLFVYHESQAQIVDADLDRELAFDEGGCGDEEEEEEGGDESSDEDGVRKDGRLDRNKMDRMDQVDVVHALQQVMNKASAHMEGSVIASYHALLVGFVLQQNEDHLDEVRKHLPGKNFQNMISQLKRLYDFTKATMAKRVESNSGFRAIERVIEYLERLE” the “soluble on expression in E. coli” value was “not soluble”. For “GPHMPEQYRYTLPVKAGEQRLLGELTGAACATLVAEIAERHAGPVVLIAPDMQNALRLHDEISQFTDQMVMNLADWETLPYDSFSPHQDIISSRLSTLYQLPTMQRGVLIVPVNTLMQRVCPHSFLHGHALVMKKGQRLSRDALRTQLDSAGYRHVDQVMEHGEYATRGALLDLFPMGSELPYRLDFFDDEIDSLRVFDVDSQRTLEEVEAINLLPAHEFPTDKAAIELFRSQWRDTFEVKRDPEHIYQQVSKGTLPAGIEYWQPLFFSEPLPPLFSYFPANTLLVNTGDLETSAERFQADTLARFENRGVDPMRPLLPPQSLWLRVDELFSELKNWPRVQLKTEHLPTKAANANLGFQKLPDLAVQAQQKAPLDALRKFLETFDGPVVFSVESEGRREALGELLARIKIAPQRIMRLDEASDRGRYLMIGAAEHGFVDTVRNLALICESDLLGERVARRRQDSRRTINPDTLIRNLAELHIGQPVVHLEHGVGRYAGMTTLEAGGITGEYLMLTYANDAKLYVPVSSLHLISRYAGGAEENAPLHKLGGDAWSRARQKAAEKVRDVAAELLDIYAQRAAKEGFAFKHDREQYQLFCDSFPFETTPDQAQAINAVLSDMCQPLAMDRLVCGDVGFGKTEVAMRAAFLAVDNHKQVAVLVPTTLLAQQHYDNFRDRFANWPVRIEMISRFRSAKEQTQILAEVAEGKIDILIGTHKLLQSDVKFKDLGLLIVDEEHRFGVRHKERIKAMRANVDILTLTATPIPRTLNMAMSGMRDLSIIATPPARRLAVKTFVREYDSMVVREAILREILRGGQVYYLYNDVENIQKAAERLAELVPEARIAIGHGQMRERELERVMNDFHHQRFNVLVCTTIIETGIDIPTANTIIIERADHFGLAQLHQLRGRVGRSHHQAYAWLLTPHPKAMTTDAQKRLEAIASLEDLGAGFALATHDLEIRGAGELLGEEQSGSMETIGFSLYMELLENAVDALKAGREPSLEDLTSQQTEVELRMPSLLPDDFIPDVNTRLSFYKRIASAKTENELEEIKVELIDRFGLLPDPARTLLDIARLRQQAQKLGIRKLEGNEKGGVIEFAEKNHVNPAWLIGLLQKQPQHYRLDGPTRLKFIQDLSERKTRIEWVRQFMRELEENAIA”, the “soluble on expression in E. coli” value was “soluble”. In the case of “VIVYGDYNNDGNVDALDFAGLKKYIMAADHAYVKNLDVNLDNEVNSTDLAILKKYLLGMVSKLPSN”, the “soluble on expression in E. coli” value is reported as “soluble”. For “MSLKPVVVMTQTNDMQSDLVSIIHKPFIDIKPLNFDIHLLNQRYDWLIFSSKNAVKFFYKYLKGINVDNIAVIGSKTAQYCESLGIRVDFMPNDFSQEGFLKSFNQTNQKILLPSSELARPLLLAALSKDNEVVKIDLYTSVPNKQNIQDVKEMIEHQQIDALTFSSSSAVRYYFNEGFVPKFKSYFAIGEQTARTIKTYQQPVTIAEIQTLESLIEKILESRGEGHHHHHH”, the “soluble on expression in E. coli” value was “soluble”. With “MEIKPTPSPPEERTIYVANFSEEVDEELLEELFIQAGPVVKVILRDVRDSNAKFALVEFEDELSVLFAIELMNGVRLFNQELQVKPRNGTNQEELYKRKKGEIEERVRSVAAPDRDGRRDSYRDDRNRNRNGNNRDSWQQQQPPRHHRQYDPLPPPPPPPLMGGSGGHWRSGGERGPPQYSTPQMLPHQHFVNQMMQQQINRSAPPYNGRHQNSTPHRHHDRHGYDRSSSRHHRNDDRRRSAHFLDIRKFQAPPTSWAFGNFQCFFWNLFSKITYLQEVGGA” the “soluble on expression in E. coli” value was “not soluble”. With “MSLKQFSPDKMLNTPFGITAAQLRKMGKTTILTDLDNTLLAWDQLDATDEVINWFTILKEEGIKVMIFSNNNEERVARVAKAIDVPYLARAKKPLGANFRWALKEMDATPEETVMIGDQIMTDIFGGNRQKLTTIFVRPVKQTDGMATKLNRMMESVILKRLAKKNQIKWEESEGHHHHHH” the “soluble on expression in E. coli” value was “soluble”. In the case of “MKANTIIAGLLSSTLLATAAYAQTPAPADSTRTMSKSTSASESQHMGQWRASKLIGVNVYNQGNEKLGDISEMLIDSEGRIQGVVIGVGGFLGVGQRDVAVTFDKLQWVNTPVSSNTAMNSQTTPAGSGTSTASPAGTTTGAATSTTAANNADRWYPDHAVLNATKDQLKSMPEFKYSK”, the “soluble on expression in E. coli” value is reported as “not soluble”. With “MAFRQPNTKELKVIRKALSYYGSGDFLSHYALLVKEGEKKEVYGVSKELYGVIGELNPHYAGVKIGEVGRRFRFSLEGTFWLLRNSRNRVWVNERGEMLFLYGRDIFAGSVERASEFGENSIVFVCNRFDDVLGIGRSRHSSDELSNLPEDKVFVENLVDRGEYLRHQKTYLSF” the “soluble on expression in E. coli” value was “not soluble”.
